Measured values: patent publication US20210030870A1 (STIPE THERAPEUTICS, published 2021)

Target: T1, C-terminal STING (immobilized and purified) (Homo sapiens, UniProt Q86WV6 139-379)
T1 construct: only an unstated C-terminal part stood in the assay; also called immobilized C-terminal STING
Assay: SPR (Biacore); C-terminal STING immobilized on the sensor chip
Procedure: For the surface plasmon resonance (SPR) analyses, BlAcore sensor chips (type CMS; Biacore, Uppsala, SE) were activated with a 1:1 mixture of 0.2 M N-ethyl-N′-(3-dimethylaminopropyl) carbodiimide and 0.05 M N-hydroxysuccinimide in water according to the manufacturer. C-terminal STING was immobilized. The SPR signal from immobilized C-terminal STING generated BlAcore resonance units (RU) that were equivalent to 66 fmol/mm2. The flow cells were regenerated with 20 μl of 1.5 M glycine-HCI (pH 3.0). The flow buffer was 10 mM HEPES, 150 mM NaCl, 1.5 mM CaCl2, and 1 mM EGTA (pH 7.4). The binding data was analyzed using the BIAevaluation program. The number of ligands bound per immobilized receptor was estimated by dividing the ratio RU ligand/mass ligand with RU receptor/mass receptor. The Kd for binding was estimated using a BIA evaluation program.

T1 sequence (Q86WV6 139-379 limits assumed): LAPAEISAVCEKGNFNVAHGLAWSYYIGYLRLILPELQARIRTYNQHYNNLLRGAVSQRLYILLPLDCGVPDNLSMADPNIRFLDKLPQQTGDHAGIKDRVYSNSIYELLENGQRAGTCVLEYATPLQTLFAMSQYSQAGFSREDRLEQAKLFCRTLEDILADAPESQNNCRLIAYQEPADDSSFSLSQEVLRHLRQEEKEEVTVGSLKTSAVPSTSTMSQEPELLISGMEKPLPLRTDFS

B1: PEP301, PB1 domain fragment peptide of human P62 (peptide)
peptide: FSFCCSPEPEAEAEAAAGPGGRKKRRQRRRPQ
notes: also called Sp62-301; PB1-domain peptide PEP301
In the case of B1, the Kd is reported as 746 nM.
